# Source: patent US20090280138A1 (OXFORD BIOMEDICA UK, published 2009)
# Like-named read-outs stand apart in the source and are kept apart here.
# What was measured:
# [1] = target: T1, MHC class I allele B*0702 monomer (human, biotinylated, bound to streptavidin-coated plate); assay: iTopia, multiparametric iScore
# T1 construct: also called B7; HLA-B7
# Experimental: (§1) The 9 mers were tested for Peptide Binding, Off Rate and Affinity using iTopia Epitope Discovery System in accordance with the manufacturer's instructions. Briefly, 96 well microtitre plates coated with MHC molecules representing different MHC alleles are used to identify candidate peptides. […] Determinations are performed in duplicate using an ELISA plate reader and included allele specific positive controls.
# (§2) Finally, multiparametric analysis is performed on the results from these assays and an iScore is generated. The iScore represents a measure of the overall quality of peptide-MHC binding, enabling candidate peptides to be ranked in order of binding quality and allowing rational prioritisation of peptides for functional cellular follow-up studies.
# [2] = target: T2, MHC class I molecule B*0702 (biotin (bound via biotin to streptavidin-coated plates)); assay: iTopia affinity assay (ED50), peptide titration on plate-bound MHC
# T2 construct: Methods name B*0702 as the allele used; also called B7; HLA-B7
# Experimental: as §1
# (§3) Dose-response curves of peptide binding to MHC were prepared by peptide titration to determine the ED50 measurement for each peptide. Values for the concentrations tested (in duplicate) were obtained as a percentage of the highest (9000×) concentration of the positive control peptide. A dose-response curve was generated using GraphPad Prism® curve fitting software, which automatically calculated the ED50 (in Molarity) for each peptide.
# [3] = target: T3, MHC class I allele A*0201 monomer (human, biotinylated, bound to streptavidin-coated plate); assay: iTopia, multiparametric iScore
# T3 construct: also called A2; HLA-A2
# Experimental: as §1, §2
# [4] = target: T4, MHC class I allele A*0101 monomer (human, biotinylated, bound to streptavidin-coated plate); assay: iTopia, multiparametric iScore
# T4 construct: placeholder peptide and b2M removed, then reconstituted with test peptide and fresh b2M; also called A1; HLA-A1
# Outline: (§4)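 9-mer peptides were tested on plates coated with MHC molecules, measuring binding, off-rate and affinity by ELISA in duplicate with allele-specific positive controls.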
# [5] = target: T3, MHC class I allele A*0201 monomer; assay: iTopia, multiparametric iScore; remark: listed apart in the source
# Outline: as §4
# [6] = target: T5, MHC class I allele A*0301 monomer (human, biotinylated, bound to streptavidin-coated plate); assay: iTopia, multiparametric iScore
# T5 construct: also called A3; HLA-A3
# Outline: as §4
# [7] = target: T1, MHC class I allele B*0702 monomer; assay: iTopia, multiparametric iScore; remark: listed apart in the source
# Outline: as §4
# [8] = target: T6, MHC class I molecule A*0201 (biotin (bound via biotin to streptavidin-coated plates)); assay: iTopia affinity assay (ED50), peptide titration on plate-bound MHC
# T6 construct: also called A2; HLA-A2
# Experimental: as §1, §3
# [9] = target: T7, MHC class I molecule HLA-A*0201 (iTopia plate-bound monomer) (biotin (bound to streptavidin-coated plate)); assay: iTopia off-rate assay, 37 C; fit R^2 0.93
# T7 construct: also called A2
# Experimental: as §1
# A one-phase exponential decay curve, with a plateau given equal to 0, was generated using GraphPad Prism® software, which calculated the t1/2 and goodness-of-fit, as measured by r², for each peptide.
# [10] = target: T8, MHC class I molecule A*0101 (biotin (bound via biotin to streptavidin-coated plates)); assay: iTopia affinity assay (ED50), peptide titration on plate-bound MHC
# T8 construct: also called A1; HLA-A1
# Experimental: as §1, §3
binder,measurement,setting,value
GAFARRPPL [5T4 9-mer peptide 55],iScore,[1],0.359
SPTSSASSF [5T4 9 mer peptide 17 (SPTSSASSF)],EC50,[2],2 µM
GMVVAALLA [5T4 9-mer peptide 99],iScore,[3],0.384
HMADMVTWL [5T4 9-mer peptide 151],iScore,[4],0
same,iScore,[5],0.821
same,iScore,[6],0
same,iScore,[7],0
same,iScore,[3],0.821
PLADLSPFA [5T4 9 mer peptide 77 (PLADLSPFA)],EC50,[8],2 µM
ILNHIVPPE [5T4 9-mer peptide 90],iScore,[3],0.426
GMVVAALLA [5T4 9 mer peptide 99 (GMVVAALLA)],EC50,[8],0.6 µM
LPAYVRNLF [5T4 9 mer peptide 45 (LPAYVRNLF)],EC50,[2],2 µM
SLRHLDLSN [5T4 9-mer peptide 118 SLRHLDLSN],t½ half life,[9],0.4 h
GAFARRPPL [5T4 9 mer peptide 55 (GAFARRPPL)],EC50,[8],0.8 µM
same,EC50,[2],10 µM
RLDEVRAGA [5T4 9-mer peptide 65],iScore,[3],0.422
VFLGIVLAL (also called VFLGIVLAL) [5T4 9-mer peptide 179],iScore,[4],0
same,iScore,[5],0.606
same,iScore,[6],0
same,iScore,[7],0
same,iScore,[3],0.606
APFLASAVS [5T4 9 mer peptide 23 (APFLASAVS)],EC50,[8],20 µM
same,EC50,[2],20 µM
VFLDNNPWV [5T4 9-mer peptide 145 VFLDNNPWV],t½ half life,[9],1.2 h
PLADLSPFA (also called Peptide No 77) [5T4 9-mer peptide 77 PLADLSPFA],t½ half life,[9],4.8 h
LDLSNNSLV [5T4 9 mer peptide 120 (LDLSNNSLV)],EC50,[8],20 µM
RLRLARLAL (also called RLRLARLAL) [5T4 9-mer peptide 8],iScore,[1],1
LAELAALNL [5T4 9 mer peptide 59 (LAELAALNL)],EC50,[8],2 µM
same,EC50,[2],20 µM
AALLAGRAL (also called AALLAGRAL) [5T4 9-mer peptide 101],iScore,[1],0.238
FLTGNQLAV [5T4 9-mer peptide 49],iScore,[3],0.791
PALCECSEA [5T4 9 mer peptide 32 (PALCECSEA)],EC50,[8],4 µM
GLRRLELAS [5T4 9-mer peptide 106 GLRRLELAS],t½ half life,[9],0.4 h
GMVVAALLA (also called Peptide No 99) [5T4 9-mer peptide 99 GMVVAALLA],t½ half life,[9],1.8 h
AFSGSNASV [5T4 9 mer peptide 81 (AFSGSNASV)],EC50,[8],7 µM
YPEKMRNRV [5T4 9-mer peptide 163],iScore,[4],0
same,iScore,[5],0
same,iScore,[6],0
same,iScore,[7],0.242
same,iScore,[1],0.242
LALIGAIFL [5T4 9-mer peptide 182],iScore,[4],0
same,iScore,[5],0.425
same,iScore,[6],0
same,iScore,[7],0.067
same,iScore,[3],0.425
PPLAELAAL (also called PPLAELAAL) [5T4 9-mer peptide 58],iScore,[1],0.145
SSAPFLASA [5T4 9-mer peptide 22],iScore,[3],0.389
AALLAGRAL [5T4 9 mer peptide 101 (AALLAGRAL)],EC50,[8],4 µM
same,EC50,[2],7 µM
LALVLLGWV (also called Peptide No 11) [5T4 9-mer peptide 11 LALVLLGWV],t½ half life,[9],1.6 h
SLQTSYVFL [5T4 9-mer peptide 176],iScore,[4],0
same,iScore,[5],0.561
same,iScore,[6],0
same,iScore,[7],0
same,iScore,[3],0.561
PPLAELAAL [5T4 9 mer peptide 58 (PPLAELAAL)],EC50,[8],40 µM
same,EC50,[2],30 µM
LPSLRQLDL [5T4 9 mer peptide 71 (LPSLRQLDL)],EC50,[8],5 µM
same,EC50,[2],3 µM
LPSLRHLDL [5T4 9 mer peptide 117 (LPSLRHLDL)],EC50,[8],20 µM
same,EC50,[2],5 µM
RGPAAGDGR (also called Peptide No 4) [5T4 9-mer peptide 4 RGPAAGDGR],t½ half life,[9],1.2 h
LIGAIFLLV [5T4 9-mer peptide 183],iScore,[4],0
same,iScore,[6],0.07
same,iScore,[7],0
same,iScore,[3],1.9
PLADLSPFA [5T4 9-mer peptide 77],iScore,[3],0.556
LPRDVLAQL [5T4 9 mer peptide 113 (LPRDVLAQL)],EC50,[2],10 µM
ILNHIVPPE [5T4 9 mer peptide 90 (ILNHIVPPE)],EC50,[8],6 µM
SPTSSASSF [5T4 9-mer peptide 17],iScore,[1],0.335
APFLASAVS [5T4 9-mer peptide 23],iScore,[1],0.176
QTSYVFLGI [5T4 9 mer peptide 177 (QTSYVFLGI)],EC50,[10],20 µM
LPSLRQLDL [5T4 9-mer peptide 71],iScore,[1],0.454
LPSLRHLDL [5T4 9-mer peptide 117],iScore,[1],0.445
LPRDVLAQL [5T4 9-mer peptide 113],iScore,[1],0.305
ILPPSLQTS [5T4 9-mer peptide 174],iScore,[4],0
same,iScore,[5],0.523
same,iScore,[6],0
same,iScore,[7],0
same,iScore,[3],0.523
VLYLNRKGI [5T4 9-mer peptide 187],iScore,[4],0
same,iScore,[5],0.095
same,iScore,[6],0.017
same,iScore,[7],0.164
same,iScore,[1],0.164
YVSFRNLTH [5T4 9-mer peptide 126],iScore,[4],0
same,iScore,[5],0
same,iScore,[6],0.086
same,iScore,[7],0.21
same,iScore,[1],0.21
FSSSAPFLA [5T4 9 mer peptide 21 (FSSSAPFLA)],EC50,[10],20 µM
FLTGNQLAV [5T4 9 mer peptide 49 (FLTGNQLAV)],EC50,[8],1 µM
ILPPSLQTS (also called Peptide No 174) [5T4 9-mer peptide 174 ILPPSLQTS],t½ half life,[9],5 h
LAELAALNL [5T4 9-mer peptide 59],iScore,[3],0.72
LPAYVRNLF [5T4 9-mer peptide 45],iScore,[1],0.389
SSAPFLASA [5T4 9 mer peptide 22 (SSAPFLASA)],EC50,[8],0.3 µM
